Test results as given in patent US20160264649A1.

What was measured:
Assay in all cases: cell-based or functional assay
[1] = target: HIV-1 Env of isolate MGRM-Chronic-B-004 (HIV-1)
[2] = target: HIV-1 Env of isolate APV_13 (HIV-1)
[3] = target: HIV-1 Env of isolate MGRM-Chronic-B-002 (HIV-1)
[4] = target: HIV-1 Env of isolate MGRM-Chronic-B-012 (HIV-1)
[5] = target: HIV-1 Env of isolate MGRM-Chronic-B-023 (HIV-1)
[6] = target: HIV-1 Env of isolate THR0.18 (HIV-1)
[7] = target: HIV-1 Env of isolate TRO.11 (HIV-1)
[8] = target: HIV-1 Env of isolate TRJ04551.58 (HIV-1)
[9] = target: HIV-1 Env of isolate MGRM-Chronic-B-008 (HIV-1)
[10] = target: HIV-1 Env of isolate JRFL (HIV-1)
[11] = target: HIV-1 Env of isolate NL43 (HIV-1)
[12] = target: HIV-1 Env of isolate 97ZA012 (HIV-1)
[13] = target: HIV-1 Env of isolate JRCSF (HIV-1) (UniProt P20871)
[14] = target: HIV-1 Env of isolate 92 BR 020 (HIV-1)
[15] = target: HIV-1 Env of isolate APV_6 (HIV-1)
[16] = target: HIV-1 Env of isolate MGRM-Chronic-B-001 (HIV-1)
[17] = target: HIV-1 Env of isolate MGRM-Chronic-B-020 (HIV-1)
[18] = target: HIV-1 Env of isolate PVO.4 (HIV-1)
[19] = target: HIV-1 Env of isolate MGRM-Chronic-B-011 (HIV-1)
[20] = target: HIV-1 Env of isolate MGRM-Chronic-B-003 (HIV-1)
[21] = target: HIV-1 Env of isolate CAAN.A2 (HIV-1)
[22] = target: HIV-1 Env of isolate 93TH305 (HIV-1)
[23] = target: HIV-1 Env of isolate QH0692.42 (HIV-1)
[24] = target: HIV-1 Env of isolate 93IN905 (HIV-1)
[25] = target: HIV-1 Env of isolate SC422661.8 (HIV-1)
[26] = target: HIV-1 Env of isolate 93MW959 (HIV-1)
[27] = target: HIV-1 Env of isolate VLGCB3 (HIV-1)
[28] = target: HIV-1 Env of isolate 98IN022 (HIV-1)
[29] = target: HIV-1 Env of isolate MGRM-Chronic-B-024 (HIV-1)
[30] = target: HIV-1 Env of isolate MGRM-Chronic-B-017 (HIV-1)
[31] = target: HIV-1 Env of isolate APV_17 (HIV-1)
[32] = target: HIV-1 Env of isolate 6535.3 (HIV-1)
[33] = target: HIV-1 Env of isolate SF162 (HIV-1) (UniProt P19550)
[34] = target: HIV-1 Env of isolate MGRM-Chronic-B-010 (HIV-1)
[35] = target: HIV-1 Env of isolate MGRM-Chronic-B-018 (HIV-1)

Sequence of PGT-137 monoclonal antibody (5345_I01) (VH): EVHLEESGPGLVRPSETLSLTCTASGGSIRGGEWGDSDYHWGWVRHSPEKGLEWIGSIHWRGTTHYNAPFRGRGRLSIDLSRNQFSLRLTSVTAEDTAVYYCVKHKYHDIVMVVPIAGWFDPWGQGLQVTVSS
Sequence of PGT-137 monoclonal antibody (5345_I01) (VL): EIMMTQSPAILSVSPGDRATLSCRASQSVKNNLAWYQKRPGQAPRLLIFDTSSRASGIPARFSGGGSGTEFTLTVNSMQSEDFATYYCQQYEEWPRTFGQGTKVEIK

Substance	neutralization IC50 [1] [µg/mL]	neutralization IC50 [2] [µg/mL]	neutralization IC50 [3] [µg/mL]	neutralization IC50 [4] [µg/mL]	neutralization IC50 [5] [µg/mL]	neutralization IC50 [6] [µg/mL]	neutralization IC50 [7] [µg/mL]	neutralization IC50 [8] [µg/mL]	neutralization IC50 [9] [µg/mL]	neutralization IC50 [10] [µg/mL]	neutralization IC50 [11] [µg/mL]	neutralization IC50 [12] [µg/mL]	neutralization IC50 [13] [µg/mL]	neutralization IC50 [14] [µg/mL]	neutralization IC50 [15] [µg/mL]	neutralization IC50 [16] [µg/mL]	neutralization IC50 [17] [µg/mL]	neutralization IC50 [18] [µg/mL]	neutralization IC50 [19] [µg/mL]	neutralization IC50 [20] [µg/mL]	further results
PGT-131 monoclonal antibody (5136_H01)	0.04	0.189	> 50	15.7	> 50	> 50	1.91	0.088	> 50	0.454	> 50	1.81	0.029	6.16	> 50	> 50	0.053	> 50	6.47	> 50	neutralization IC50 [21]: > 50 µg/mL; neutralization IC50 [22]: 0.016 µg/mL; neutralization IC50 [23]: > 50 µg/mL; neutralization IC50 [24]: 0.177 µg/mL; neutralization IC50 [25]: > 50 µg/mL; neutralization IC50 [26]: > 50 µg/mL; neutralization IC50 [27]: > 50 µg/mL; neutralization IC50 [28]: > 50 µg/mL; neutralization IC50 [29]: > 50 µg/mL; neutralization IC50 [30]: > 50 µg/mL; neutralization IC50 [31]: > 50 µg/mL; neutralization IC50 [32]: 0.056 µg/mL; neutralization IC50 [33]: 0.025 µg/mL; neutralization IC50 [34]: 0.016 µg/mL; neutralization IC50 [35]: > 50 µg/mL
PGT-135 monoclonal antibody (5343_B08; 5344_E16)	> 50	0.716	> 50	0.166	0.329	> 50	0.03	> 50	> 50	> 50	8.03	> 50	0.131	0.073	> 50	> 50	0.057	> 50	> 50	> 50	neutralization IC50 [21]: 5.15 µg/mL; neutralization IC50 [22]: > 50 µg/mL; neutralization IC50 [23]: > 50 µg/mL; neutralization IC50 [24]: 0.011 µg/mL; neutralization IC50 [25]: 21.8 µg/mL; neutralization IC50 [26]: > 50 µg/mL; neutralization IC50 [27]: 0.142 µg/mL; neutralization IC50 [28]: 0.014 µg/mL; neutralization IC50 [29]: > 50 µg/mL; neutralization IC50 [30]: > 50 µg/mL; neutralization IC50 [31]: > 50 µg/mL; neutralization IC50 [32]: > 50 µg/mL; neutralization IC50 [33]: 0.023 µg/mL; neutralization IC50 [34]: > 50 µg/mL; neutralization IC50 [35]: > 50 µg/mL
PGT-137 monoclonal antibody (5345_I01)	> 50	> 50	> 50	> 50	> 50	> 50	9.35	> 50	> 50	> 50	17.4	> 50	> 50	7.81	> 50	> 50	32.9	> 50	> 50	> 50	neutralization IC50 [21]: > 50 µg/mL; neutralization IC50 [22]: > 50 µg/mL; neutralization IC50 [23]: > 50 µg/mL; neutralization IC50 [24]: 0.042 µg/mL; neutralization IC50 [25]: > 50 µg/mL; neutralization IC50 [26]: > 50 µg/mL; neutralization IC50 [27]: 3.36 µg/mL; neutralization IC50 [28]: 0.408 µg/mL; neutralization IC50 [29]: > 50 µg/mL; neutralization IC50 [30]: > 50 µg/mL; neutralization IC50 [31]: > 50 µg/mL; neutralization IC50 [32]: > 50 µg/mL; neutralization IC50 [33]: 3.41 µg/mL; neutralization IC50 [34]: > 50 µg/mL; neutralization IC50 [35]: > 50 µg/mL
PGT-130 monoclonal antibody (5147_N06)	0.01	0.052	> 50	0.373	> 50	> 50	0.257	0.023	5.18	0.046	> 50	1.32	0.01	1.4	> 50	> 50	0.014	5.17	0.153	> 50	neutralization IC50 [21]: > 50 µg/mL; neutralization IC50 [22]: 0.021 µg/mL; neutralization IC50 [23]: > 50 µg/mL; neutralization IC50 [24]: 0.02 µg/mL; neutralization IC50 [25]: > 50 µg/mL; neutralization IC50 [26]: 8.55 µg/mL; neutralization IC50 [27]: 4.6 µg/mL; neutralization IC50 [28]: > 50 µg/mL; neutralization IC50 [29]: 5.78 µg/mL; neutralization IC50 [30]: > 50 µg/mL; neutralization IC50 [31]: 10.7 µg/mL; neutralization IC50 [32]: 0.031 µg/mL; neutralization IC50 [33]: 0.007 µg/mL; neutralization IC50 [34]: 0.006 µg/mL; neutralization IC50 [35]: 31.9 µg/mL
